Data published in patent US20150110787A1 (SAMSUNG ELECTRONICS, published 2015).
One block for each binder: values may come before it.

What was measured:
[1] = biological target: T1, human VEGF-C polypeptide (R&D Systems; Accession # P49767) (human, UniProt P49767 103-227, limits assumed); assay: ELISA on coated human VEGF-C (1 ug/ml), anti-HA-HRP detection; 50% binding concentration, given as Kd
T1 construct: Bought protein; also called hVEGF-C; Recombinant VEGF-C protein (R&D Systems)
T1 sequence (looked up): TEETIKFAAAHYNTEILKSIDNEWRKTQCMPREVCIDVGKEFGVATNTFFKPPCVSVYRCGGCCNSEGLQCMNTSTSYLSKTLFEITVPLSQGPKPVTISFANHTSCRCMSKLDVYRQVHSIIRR
Procedure: ELISA for verifying the binding affinity of the anti-VEGF-C antibody in scFv form purified in Example 2 to its antigen was carried out. MaxiSorp™ flat-bottom plate (Nunc) of 96-wells was coated with 1 μg/ml of human VEGF-C(R&D Systems) for 16 hours. The plate was then washed 5 times with phosphate buffer saline (PBS) supplemented with 0.05%(v/v) Tween-20, and then blocked with PBS supplemented with 1%(v/v) bovine serum albumin (BSA; Sigma) at room temperature for 2 hours. The anti-VEGF-C antibody in scFv form purified in Example 2 was added to each well of the plate and was incubated at room temperature for 2 hours.
The plate was washed 5 times with PBS supplemented with 0.05% (v/v) Tween-20. HRP-conjugated anti-HA antibody (HA-probe Antibody (F-7) HRP conjugated) (Santacruz) diluted with PBS supplemented with 1%(v/v) BSA was added at the dilution ratio of 1:1,000 (v/v) and was incubated at room temperature for 1 hour. The reacted well was washed 5 times with PBS supplemented with 0.1%(v/v) Tween-20. Finally, tetramethylbenzidine (TMB) substrate (Cell Signal) was added to each well of the plate at the amount of 100 μl to induce coloring reaction at room temperature for 3 minutes. Then, the reaction was stopped with 50 μl of 5N H₂SO₄ solution, and OD450 value was measured on plate reader (Molecular Devices).

[2] = biological target: T1, human VEGF-C polypeptide (R&D Systems; …); assay: SPR, BIAcore T100; antibody captured on anti-human Fc antibody on a CM5 chip, recombinant VEGF-C flowed from 200 nM
Procedure: To accurately measure the affinity of the anti-VEGF-C antibody to its antigen, VEGF-C, Surface Plasmon Resonance (SPR) method was conducted using BIAcore T100 (GE Healthcare). The SPR method is based on a principle that the refractive index of light passing through a sensor chip varied depending on the condition of the substance coated on the sensor chip. If an antibody or an antigen is flowed on the chip which is coated with an antigen or an antibody, the binding between the antigen and the antibody leads to change in refractive index, and Kd value can be calculated based on the refractive index.
25 μg/ml of anti-human Fc antibody (Sigma) was fixed on CM5 sensor chip (GE Healthcare) using pH 5.0 sodium acetate solution and amine coupling kit (GE Healthcare). 2 μg/ml of the anti-VEGF-C antibody obtained in Example 2 was added on the chip to be captured.
Recombinant VEGF-C protein (R&D Systems) was serially diluted with HBS-P (GE-Health) solution starting from the concentration of 200 nM and flowed on the chip, leading to binding (on) to and dissociating (off) from the antibody, thereby measuring the antigen-antibody affinity.

[3] = biological target: T2, FLAG-tagged human VEGF-C (Accession # P49767) (human, UniProt P49767 112-227, limits assumed); assay: competitive ELISA: human VEGR-R3-Fc coated, 200 ng/ml FLAG-tagged human VEGF-C plus scFv (1-1000 nM), anti-FLAG-HRP; competitor VEGR-R3-Fc
T2 construct: not shown: FLAG tag
T2 sequence (looked up): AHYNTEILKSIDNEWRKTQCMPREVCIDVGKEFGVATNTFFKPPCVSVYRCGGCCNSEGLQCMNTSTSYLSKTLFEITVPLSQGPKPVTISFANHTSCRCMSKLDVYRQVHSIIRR
Procedure: To examine the effect of the anti-VEGF-C antibody purified in Example 2 on the inhibition of VEGF-C:VEGR-R3 binding, a competitive ELISA, which is used for verification of molecular interaction, was performed. MaxiSorp™ flat-bottom plate (Nunc) of 96-wells was coated with […] of human VEGR-R3-Fc (R&D Systems. Accession No. P35916) which is a fusion protein composed of human VEGR-R3 and Fc of human IgG1. Thereafter, the plate was washed 5 times with phosphate buffer saline (PBS) supplemented with 0.05%(v/v) Tween-20, and then blocked with PBS supplemented with 1%(v/v) bovine serum albumin (BSA; Sigma) at room temperature for 2 hours.
To perform the VEGF-C:VEGR-R3 neutralization ELISA, the anti-VEGF-C antibody (concentration: 1 nM, 10 nM, 100 nM, or 1000 nM) purified in Example 2 was added to each well coated with the human VEGR-R3-Fc, together with a mixture of 1%(v/v) BSA and 200 ng/ml of FLAG-tagged human VEGF-C (Accession # P49767), and incubated at room temperature for 2 hours. Thereafter, the plate was washed 5 times with PBS supplemented with 0.05% (v/v) Tween-20. […] Then, the reaction was stopped by addition of 50 μl of 5N H₂SO₄ solution, and OD450 value was measured using plate reader (Molecular Devices).

[4] = biological target: T2, FLAG-tagged human VEGF-C (Accession # …); assay: competitive ELISA: human VEGR-R3-Fc coated, 200 ng/ml FLAG-tagged human VEGF-C plus IgG (1-1000 nM), anti-FLAG-HRP; competitor VEGR-R3-Fc
Procedure: MaxiSorp™ flat-bottom plate (Nunc) of 96-wells was coated with […] of human VEGR-R3-Fc (R&D Systems. Accession No. P35916) which is a protein produced by coupling human VEGR-R3 with Fc of human IgG1. Thereafter, the plate was washed 5 times with phosphate buffer saline (PBS) supplemented with 0.05%(v/v) Tween-20, and then blocked with PBS supplemented with 1%(v/v) bovine serum albumin (BSA; Sigma) at room temperature for 2 hours.
For performing the VEGF-R3:VEGF-C neutralization ELISA, the anti-VEGF-C antibody (concentration: 1 nM, 10 nM, 100 nM, or 1000 nM) in IgG form purified in Example 6 was added to each well of the human VEGR-R3-Fc coated plate, together with a mixture of 1%(v/v) BSA and 200 ng/ml of FLAG-tagged human VEGF-C (Accession # P49767), and then, the plate was reacted at room temperature for 2 hours. Thereafter, the plate was washed 5 times with PBS supplemented with 0.05% (v/v) Tween-20. HRP-conjugated anti-FLAG antibody (SIGMA) was diluted with PBS supplemented with 1%(v/v) BSA at the dilution ratio of 1:5,000 (v/v), and added to each well in the amount of 100 μl, to react at room temperature for 1 hour. The reacted well was washed 5 times with PBS supplemented with 0.1%(v/v) Tween-20. […] Then, the reaction was stopped with 50 μl of 5N H₂SO₄ solution, and OD450 value was measured on plate reader (Molecular Devices).

Kd [1]: 26.2 nM
Kd [2]: 0.345 nM
koff [2]: 0.00258 s⁻¹
kon [2]: 7.45e+06 M⁻¹ s⁻¹
IC50 [3]: 33.4 nM
B1: SAIT-VEGFC-AB-4A2, anti-VEGF-C antibody in scFv form purified in Example 2 (scFv, V domains shown)
VH: EVQLLESGGGLVQPGGSLRLSCAASGFTFSSYDMSWVRQAPGKGLEWVSAISYDNGSTYYADSVKGRFTISRDNSKNTLYLQMNSLRAEDTAVYYCARDPYLARLNTFDYWGQGTLVTVSS
VL: QSVLTQPPSASGTPGQRVTISCSGSSSNIGSNNVSWYQQLPGTAPKLLIYYNSHRPSGVPDRFSGSKSGTSASLAISGLRSEDEADYYCATWDSSLNGYVFGGGTKLTVL
notes: Expressed in the E. coli periplasm and partially purified on Ni-NTA; also called anti-VEGF-C scFv antibody

IC50 [4]: 9.2 nM
B2: SAIT-VEGFC-AB-4A2, anti-VEGF-C antibody in IgG form purified in Example 6 (antibody, V domains shown)
VH: B1 VH
VL: QSVLTQPPSASGTPGQRVTISCSGSSSNIGSNNVSWYQQLPGTAPKLLIYYNSHRPSGVPDRFSGSKSGTSASLAISGLRSEDEADYYCATWDSSLNGYVFGGGTKLT
notes: VH was cloned into pOPTI-VAC, which carries the human IgG1 constant region and Fc; Expressed in 293-F cells and purified on Protein A
